Laboratory results reported in US20240150797A1, “BIOCATALYTICAL PRODUCTION OF DIHYDROCHALCONES” (Symrise AG, priority 2021, published 2024).
Residue numbers refer to the chain shown, from its start.

B1: CHI12: Chalcone isomerase from Holophaga foetida, access no. WP_005036737.1 (protein, listed as Holophaga foetida)
chain: TVEFCPMRSLIYVGLSKEKYRHLLQNWLYRIHIPDSISQFGPYVTKYAFYNALPVPPEGERFGTIKMQLTEHYWQCNPFQQAVAVKTFKEVFPIDVLRWQGNMPDESDGAVELEGDEARSAKGGQGAKPFIFAFVPLWWEEDIKGKMRTIADGPNYRWQFVMKYPEGVSQEQGDKWFLEEVAPAFAAMPEVNRILSSKIIQNVNGCSFNRVVEMWFDGPDEWYAAAVTKAAALPKPTWAKQDKFPFLASDYEFASVFLTDYATSDNLSQYRGYITLR
B2: CHIera Mut9: Chalcone isomerase variant 9 from Eubacterium ramulus, genetically engineered (protein, listed as Eubacterium ramulus)
chain: MADFKFEPMRSLIYVDCVSEDYRPKLQRWIYKVHIPDSISQFEPYVTKYAFYPSFPIPPQGDRFGYARMQLTEHHWLVSMLDPRLEIKAIAETFPMDVLVWQGQIPAAAHTDAQIDSDGDAGNAARKSNNAEGNPFIFAFLPMWWEKDLKGKGRTIEDGANYRFNMTIGFPEGVDKAEGEKWLFEKVVPILQAAPECTRVLASAVKKDINGCVMDWVLEIWFENQSGWYKVMVDDMKALEKPSWAQQDAFPFLKPYHNVCSAAVADYTPSNNLANYRGYITMR
B3: CHIera Mut12: Chalcone isomerase variant 12 from Eubacterium ramulus, genetically engineered (protein, listed as Eubacterium ramulus)
chain: B2 chain with Q41K, M80P, K88N, G122A, N123R
B4: CHIera Mut14: Chalcone isomerase variant 14 from Eubacterium ramulus, genetically engineered (protein, listed as Eubacterium ramulus)
chain: B2 chain with Q41K, M80E, K88N, G122H, N123R
B5: CHIera Mut10: Chalcone isomerase variant 10 from Eubacterium ramulus, genetically engineered (protein, listed as Eubacterium ramulus)
chain: B2 chain with M80I, N123D
B6: CHIera Mut11: Chalcone isomerase variant 11 from Eubacterium ramulus, genetically engineered (protein, listed as Eubacterium ramulus)
chain: B2 chain with M80P, N123D
B7: CHI2: Chalcone isomerase from Tepidanaerobacter acetatoxydans, access no. WP_013779275.1 (protein)
chain: DTEFKPMRSLIYVGVAKEEYRHKLKNWLYRYHIPDSISQFAPYVTKYAFYNALPVPPEGERFGAYNMQLTEHYWLINPMNPQLKIKAFTEFFPVDVLKWQGNIPDDADADSVNIEGDAARSSGGDNGMPPFIFAFIPFWWEEDFKGAGRTVEDGPNYRWQFLIQYPNGISLEEGDQWFYKKLVPAFKEMPEVNRFLTSRVIRDVNDCQFHRVIEMWFDGPEEWYRAAVEKGKSIERPHWATAEEFPYLKPKFQIASLFLTDIADSDNYSQYRGYITMR
modifications: Tepidanaerobacter acetatoxydans
B8: CHI1: Chalcone isomerase from Fusibacter sp. 3D3, access no. WP_069876268.1 (protein)
chain: SYVPEFKPMRSFILNNVRSDNDRPKAFRWLYKQHVPESISQFRPYCTKYATYHALPLVEGAEQFGTYNWIMTEHYWNFNIFQDKGLGHSRGLAFTEAYPHDFMEITCQPPSNTLRQSGWQGSAEGYHPIVFCFAPIFWENDFKGSERLTDDGANFRWLFFLSYPEGVTVEEGDQWFLETFAKEAAEMPEVIRFLSSRVMDSPRINPFDRIVELWFDDSEAWHNAMVKNGHLFTKPAWSKVDQFPFFEAYKDITGVFIMDRPDSDHLAQWQGYITTR
modifications: Fusibacter sp. 3D3
B9: CHI4: Chalcone isomerase from Acetoanaerobium noterae, access no. WP_079589066.1 (protein, listed as Acetoanaerobium noterae)
chain: ADFEFNPMRSLIYVDVVKEDYRHMLKHWLYRHHIPDSISQFGPYVTKYAFYPALPTPPEGDRFGTIRMQLTEHYWTVNPFTSNFKNKAFTEFFPIDILKWQGNIPDDSKVAALEGEEVVKLEGDDARASGGDNGCPPFIFAFVPICWEEDFKGSQRTVEDGPNYRWQFVMKYPEGVTMKEGDKWFYEEMIPKFKDMPDVLRILSSKIIQQVNGCPYHRVVEMWFNCPSAWYRSAVEKAKEIKKPSWAKYDVFPYLKPKFEIASLFLTDIAESDNYSQYRGYITMR
B10: CHI5: Chalcone isomerase from Parasporobacterium paucivorans, access no. WP_073993359.1 (protein)
chain: GPEFQPMRSLIYVDCVKEEYRHRLQNWLYHYHVPDSISQFAPYVSKYCFYNALPTPPEGERFGTIRQQLTEHYWMVNPFTEHFKNKALTEYFPCDVLKWQGNIPDDDLEVNFEGDEARSKGGHNGCAPFIFAFLPLCWEEDFKGKERTIENGPNYRWNFVMKYPEGTSMEEGDKWFYEKMIPAFQEMPEVTRILTSKVIQSINGCAFHRVVEMWFDGPNAWYQAAVVKAKNIEKPSWASVDAFPYLQATFEFDGIFLTDYAASDNMSQYRGYLAMR
modifications: Parasporobacterium paucivorans

Assays:
Type in all cases: biochemical
Details in all cases: purified CHI in 50 mM PBS, 100 μM substrate, 25° C.
[1] = Specific activity of purified CHI, absorbance decrease at 384 nm, eriodictyol chalcone
Protocol: (§1) E. coli BL21 (DE3) cells containing one of the pET28b plasmids from Table 2 or Table 3 were used to inoculate 1 L LB medium at OD of 0.1. Cells were incubated at 37° C., 250 rpm until the OD reached 0.4-0.6 and induced by supplementing with 0.1 mM IPTG. After protein expression at 28° C., 250 rpm for 16 h, the cells were harvested by centrifugation at 4,000×g for 15 min. The harvested cells were lysed with 0.5 mg/mL lysozyme (Sigma-Aldrich), 0.4 U/mL Benzonase (Sigma-Aldrich) and BugBuster (Merck) at room temperature for 0.5 h to obtain a crude cell extract. The crude extract was centrifuged at 10,000×g for 30 min to remove the pellet. Recombinant proteins were purified by Ni-affinity chromatography (GE Healthcare). The supernatant of the crude extract was loaded on the column with 20 mM imidazole. The column was washed by 5 column volumes of 30 mM imidazole with 20 mM PBS (pH 7.4) and 500 mM NaCl. The target proteins were eluted by 150 mM imidazole with 20 mM PBS (pH 7.4) and 500 mM NaCl. Buffer exchange with 50 mM PBS (pH 7.5) was achieved by ultrafiltration with Amicon Ultra-15 (Merck). The activity of the respective purified enzyme was determined by measuring the absorbance decrease at 384 nm in the reaction mix (CHI in 50 mM PBS with 100 μM of either naringenin chalcone, hesperetin chalcone, eriodictyol chalcone, homoeriodictyol chalcone or 4-O-methyl butein at 25° C.).

[2] = Specific activity of purified CHI, absorbance decrease at 384 nm, hesperetin chalcone
Protocol: as §1

[3] = Specific activity of purified CHI, absorbance decrease at 384 nm, 4-O-methyl butein
Protocol: as §1

[4] = Specific activity of purified CHI, absorbance decrease at 384 nm, naringenin chalcone
Protocol: as §1

[5] = Specific activity of purified CHI, absorbance decrease at 384 nm, homoeriodictyol chalcone
Protocol: as §1

| Molecule | Specific activity, Eriodictyol chalcone [1] | Specific activity, Hesperetin chalcone [2] | Specific activity, 4-O-methyl butein [3] | Specific activity, Naringenin chalcone [4] | Specific activity, Homoeriodctiol chalcone [5] |
| --- | --- | --- | --- | --- | --- |
| B1 | 28.2 | 36.5 | 0.2 | 32.4 | – |
| B2 | 43.7 | 57.4 | – | 67.5 | 14.4 |
| B3 | 19.9 | 24.9 | – | 11.0 | 9.8 |
| B4 | 27.2 | 4.5 | – | 29.5 | 15.6 |
| B5 | 60.0 | 96.4 | – | 26.4 | 17.9 |
| B6 | 91.1 | 75.5 | – | 76.8 | 30.8 |
| B7 | 25.4 | 93.5 | 0.8 | 54.8 | 19.9 |
| B8 | 18.2 | 16.7 | 0.2 | 21.3 | 11.3 |
| B9 | 34.4 | 58.5 | 0.4 | 46.6 | 15.2 |
| B10 | 82.7 | 84.5 | 0.4 | 59.9 | 19.7 |
